Data published in paper PMC7398557 (Nature, 2020).

Biological target: the molecule itself
Assay: cryo-EM structure

B1: human acyl-CoA:diacylglycerol acyltransferase 1 (DGAT1) (enzyme)
chain: MGDRGSSRRRRTGSRPSSHGGGGPAAAEEEVRDAAAGPDVGAAGDAPAPAPNKDGDAGVGSGHWELRCHRLQDSLFSSDSGFSNYRGILNWCVVMLILSNARLFLENLIKYGILVDPIQVVSLFLKDPYSWPAPCLVIAANVFAVAAFQVEKRLAVGALTEQAGLLLHVANLATILCFPAAVVLLVESITPVGSLLALMAHTILFLKLFSYRDVNSWCRRARAKAASAGKKASSAAAPHTVSYPDNLTYRDLYYFLFAPTLCYELNFPRSPRIRKRFLLRRILEMLFFTQLQVGLIQQWMVPTIQNSMKPFKDMDYSRIIERLLKLAVPNHLIWLIFFYWLFHSCLNAVAELMQFGDREFYRDWWNSESVTYFWQNWNIPVHKWCIRHFYKPMLRRGSSKWMARTGVFLASAFFHEYLVSVPLRMFRLWAFTGMMAQIPLAWFVGRFFQGNYGNAAVWLSLIIGQPIAVLMYVHDYYVLNYEAPAAEA
Which “stoichiometry N” value does the source give for B1 here?
Its value is 2.
